Eight molecules from publication PMC3828517 (Genes & Development, 2013) can be followed below.

For data set [1], the target named is Lrp6 β-propeller domains 1–2 (BP1–2), His8-tagged (human). The experiment in a line: AlphaScreen or HTRF.
Data set [2] concerns the molecule itself. The data set is described as follows: crystal structure.
Data set [3] has as its target T1, MBP-Norrin (human Norrin residues 25–133 fused to the C terminus of maltose-binding protein) (human), Q00604.
T1 chain: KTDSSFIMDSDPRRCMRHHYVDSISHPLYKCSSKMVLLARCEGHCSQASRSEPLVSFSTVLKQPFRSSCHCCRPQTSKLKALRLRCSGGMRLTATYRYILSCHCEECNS
The experiment in a line: SEC. Conditions: remark: other sources report otherwise.

For data set [4], the target named is T2, Lrp6BP2-FcH6 (Lrp6 β-propeller 2 as an Fc fusion protein) (human, UniProt O75581 325-631).
T2 sequence: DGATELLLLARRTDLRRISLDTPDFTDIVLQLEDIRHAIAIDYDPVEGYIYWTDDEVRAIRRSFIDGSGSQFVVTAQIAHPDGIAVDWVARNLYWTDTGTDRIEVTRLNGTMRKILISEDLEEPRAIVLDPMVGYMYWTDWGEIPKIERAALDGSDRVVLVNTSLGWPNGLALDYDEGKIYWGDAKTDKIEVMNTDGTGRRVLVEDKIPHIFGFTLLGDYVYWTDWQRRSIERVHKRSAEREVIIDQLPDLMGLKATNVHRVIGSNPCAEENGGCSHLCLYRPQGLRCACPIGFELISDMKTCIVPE
The experiment in a line: AlphaScreen or HTRF.

Data set [5] concerns the target T3, Fz4-FcH6 (Frizzled 4 cysteine-rich domain fused with an FcH6 tag) (human, UniProt Q9ULV1 40-164).
T3 sequence: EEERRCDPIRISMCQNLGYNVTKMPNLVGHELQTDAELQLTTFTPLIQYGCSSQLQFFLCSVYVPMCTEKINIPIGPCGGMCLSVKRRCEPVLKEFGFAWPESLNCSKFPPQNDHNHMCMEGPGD
The data set is described as follows: AlphaScreen or HTRF.

Data set [6] deals with T2, Lrp6BP2-FcH6 (Lrp6 β-propeller 2 as an …). The data set is described as follows: BLI.
Data set [7] deals with T3, Fz4-FcH6 (Frizzled 4 cysteine-rich …). The experiment in a line: BLI.

On to “MBP-Norrin R41E mutant protein (from UniProt Q00604 25-133) (ligand)”, for which, in data set [1], the IC50 was determined as 288 nM.

“MBP-Norrin C55A/C110A mutant protein (from UniProt Q00604 25-133) (ligand)”: the IC50 in data set [1] was 207 nM.

B1: MBP-Norrin truncation construct (Norrin residues 31–133 fused with MBP at its N terminus), as crystallized (ligand)
chain: IMDSDPRRCMRHHYVDSISHPLYKCSSKMVLLARCEGHCSQASRSEPLVSFSTVLKQPFRSSCHCCRPQTSKLKALRLRCSGGMRLTATYRYILSCHCEECNS
Regarding B1, the binding result in data set [2] is recorded as “binds”.

B2: MBP-Norrin (human Norrin residues 25–133 fused to the C terminus of maltose-binding protein), Q00604 25-133 (ligand)
chain: KTDSSFIMDSDPRRCMRHHYVDSISHPLYKCSSKMVLLARCEGHCSQASRSEPLVSFSTVLKQPFRSSCHCCRPQTSKLKALRLRCSGGMRLTATYRYILSCHCEECNS
Consider B2, for which the stoichiometry N in data set [3] was 2.

B3: biotinylated MBP-Norrin (AviTag-MBP-Norrin, biotinylated in vivo) (ligand)
chain: KTDSSFIMDSDPRRCMRHHYVDSISHPLYKCSSKMVLLARCEGHCSQASRSEPLVSFSTVLKQPFRSSCHCCRPQTSKLKALRLRCSGGMRLTATYRYILSCHCEECNS
modifications: biotin on the AviTag (in vivo biotinylation by BirA)
Turning to B3, the binding result in data set [4] is “binds”. The Kd in data set [5] is 11 nM.

B4: MBP-Norrin (human Norrin residues 25–133 fused to the C terminus of maltose-binding protein) (ligand)
chain: KTDSSFIMDSDPRRCMRHHYVDSISHPLYKCSSKMVLLARCEGHCSQASRSEPLVSFSTVLKQPFRSSCHCCRPQTSKLKALRLRCSGGMRLTATYRYILSCHCEECNS
Consider B4, for which, in data set [6], the binding result is “binds”. Further, the Kd in data set [7] turned out to be 5 nM. The molecule further displayed a 50% inhibitory concentration (IC50) in data set [5] of 34 nM.

B5: MBP-Norrin K54E/R109E mutant protein (ligand)
chain: KTDSSFIMDSDPRRCMRHHYVDSISHPLYECSSKMVLLARCEGHCSQASRSEPLVSFSTVLKQPFRSSCHCCRPQTSKLKALRLECSGGMRLTATYRYILSCHCEECNS
Take B5: in data set [5], the midpoint of inhibition, the IC50, lay at 18 nM.

B6: MBP-Norrin C55A/C110A mutant protein (ligand)
chain: KTDSSFIMDSDPRRCMRHHYVDSISHPLYKASSKMVLLARCEGHCSQASRSEPLVSFSTVLKQPFRSSCHCCRPQTSKLKALRLRASGGMRLTATYRYILSCHCEECNS
In data set [5], B6 returned an IC50 of 37 nM.
